Measured values: US10286070B2, “Oncostatin M (OSM) antagonists for preventing cancer metastasis and IL-6 related disorders” (Boise State University, priority 2013, dated 2019)
“Also recorded” adds a separate entry of the source.

Key:
[1] = system: pSTAT3, pJNK, pERK, and pAKT signaling; experiment: Western blot analysis of downstream OSM signaling in MDA-MB-231 cell lysates; assay type: cell-based, human; conditions: MDA-MB-231 cells; 5 μM
[2] = system: Du145 and PC3+STAT3 human prostate cancer cells; experiment: OSM-induced detachment of human prostate cancer cells; assay type: cell-based; conditions: OSM 5 ng/mL, inhibitors 5 μM, 5 days
Procedure: FIGS. 15A and 15B. […] Detachment for FIG. 15A) Du145 and 15B) PC3+STAT3 human prostate cancer cells. 10,000 cells were plated in a 24-well plate in 1 mL complete media that was pre-incubated with OSM (5 ng/mL) and inhibitors (5 μM) for 1 hour. After 5 days, the detached cells were stained with Trypan Blue and counted using a hemocytometer.

[3] = system: OSM-induced phosphorylation of STAT3 on Tyr-705 (pSTAT3); experiment: pSTAT3 ELISA after OSM stimulation; assay type: cell-based; conditions: human breast cancer cells; OSM 25 ng/ml, 30 minutes
Text: FIGS. 16A-16D. […] This method can be used for in vitro screening of lead compounds that inhibit OSM signaling. […] Cell lysates were collected and pSTAT3 levels were measure by ELISA.
Next an enzyme-linked immunosorbent assay (ELISA) for analyzing initial OSM-induced phosphorylation of STAT3 on Tyr-705 (pSTAT3) will be employed for the initial screen. […] The ability of the top 100 OSM-SMIs to inhibit OSM-OSMR interactions that result in expression of pSTAT3 will be evaluated by this assay and cells will be pretreated with the OSM-SMIs for 2 hours prior to the addition of OSM. As positive controls, neutralizing antibodies to human OSM or human gp130 will establish baseline pSTAT3 levels in the ELISA assay (FIG. 16A).
Actual physiological levels of OSM may be much lower than the nanogram levels used here. […] Therefore, testing inhibitors using lower concentrations of OSM may better allow for the detection of Effects at physiologically relevant concentrations.
Additionally, a functional dose response curve for OSM-SMI activity will be generated through 2 log units of concentration of compounds and used to establish the dynamic range of OSM-SMI activity. This will be used to determine the half maximal inhibitory concentration (IC50) as well as the minimum effective concentration (Ceff) for each compound.

IL-6 [4] = experiment: IL-6 ELISA on conditioned media of OSM treated human breast cancer cell lines; assay type: cell-based; conditions: OSM 25 ηg/ml, 48 hours
Procedure: (§1) 1×10^5T47D, MDA-MB-231, MCF7, MDA-MB-468, or 4T1.2 cells were plated in multi-well plates in the presence or absence of OSM for […]. Conditioned media was collected, diluted 1:5 and an IL-6 ELISA was performed as according to the manufacturer's recommended instructions.
(§2) OSM induced IL-6 expression was studied on various cell lines including two ER+ cell lines, T47D and MCF7, and three ER− cell lines MDA-MB-468, MDA-MB-231, and 4T1.2 cells. rhOSM was used for the four human cell lines at a concentration of 25 ηg/ml while rmOSM was used for the 4T1.2 cells at a concentration of 25 ηg/ml. The cells were incubated in OSM for a total of 48 hours and IL-6 levels in the conditioned media was assessed by ELISA. […] In the 4T1.2 mouse mammary cancer cells, OSM induced IL-6 by approximately 4-fold (FIG. 7). To test if OSM induced IL-6 in vivo, tumors from the MDA-MB-231 injected mice were lysed, homogenized, and the IL-6 levels were analyzed by ELISA.

IL-6 [5] = experiment: IL-6 ELISA on conditioned media of OSM treated 4T1.2 cells; assay type: cell-based, mouse; conditions: rmOSM 25 ηg/ml, 48 hours
Procedure: as §1, §2

[6] = system: MDA-MB-231 D3H2LN luc2 cells; experiment: MDA-MB-231 D3H2LN luc2 orthotopic xenograft with peri-tumoral OSM injections; assay type: in vivo, mouse
Procedure: For xenograft models, six-week-old female nude mice were obtained from the National Cancer Institute's Animal Production Facility (Frederick, Md.). Non-surgical orthotopic injections were performed using 2.0×10^6 cells diluted in 50 μL of PBS containing 10% medium. When the tumors became palpable, mice were randomized into groups and began receiving per-tumoral injections. For peri-tumoral injections, either 50 μL PBS or 1 μg recombinant full length human OSM (Peprotech) diluted in 50 μL PBS was injected into the area surrounding the tumor three times per week until the end point of the experiment.
Detection of human circulating tumor cells (CTCs) in mouse blood was performed. Human DNA standard curve was prepared by adding a specified number of human MDA-MB-231 cells into mouse blood and the DNA isolated for use in the qPCR reactions. Whole DNA was isolated from 100 μl of whole blood collected from mice at the end of the experiment. DNA was isolated using DNeasy Blood & Tissue kit (Quiagen Cat#) using the manufacturer's standard instructions. DNA concentrations were normalized between each sample and 4.5 ng of DNA was added to each 25 μl qPCR reaction. qPCR reaction mixture was obtained from the GoTaq qPCR Master Mix (Promega, Cat#TM318, Madison Wis.), and reaction mixtures were prepared in accordance with manufacturer recommendations. 0.125 μl of 100 μM primers for human Alu fragment, and for GAPDH was added to each reaction. The primer sequences used for Alu was (s:[…] a:[…]) and for
GAPDH the sequence used was (s: […]; a: […]). The qPCR reaction was done with SYBR green chemistry using a CXR reference dye and ran on an Applied Biosystems AB7300 real-time thermocycler. Reaction conditions were: 50° C. for 2 minutes, 95° C. for 3 minutes and 40 cycles of: (95° C. 00:15, 60° C. 00:30, 72° C. 00:30) and fluorescence measurements were taken during the annealing temperature stage (60° C.). cT values were determined and the final results were normalized to GAPDH signal levels.
BLI of live animals was initiated at 13 days after cell line injection and performed weekly. Three to five mice were imaged at one time. Ex vivo organs were also imaged using BLI. Both procedures follow our previously described protocols.
To determine the influence of OSM in human breast cancer, we used a xenograft model. MDA-MB-231 D3H2LN luc2 cells were injected into the fourth mammary fat pads of female nude mice. After the tumors were palpable, OSM (1 μg) or PBS were injected peri-tumorally 3 times per week (FIG. 6A), and mice were monitored until the end-point criteria were met. Tumor size was measured using calipers three times per week for the duration of the experiment and expressed as tumor volume (mm^3)=[…]. […] Next, BLI intensity of the cells was assessed in vivo. The BLI intensities of the tumors from both groups were similar with variations in intensities in both groups (FIG. 6C). A few mice in both groups had lower BLI intensities due to tumor necrosis.
Ex vivo analysis of the lungs was performed. […] Next, quantification of the BLI intensities of the lungs was performed.
Our studies on detecting CTCs involve the usage of the Alu transposon repeats for detecting human cells in mouse blood, and with colony forming assays that detects all transformed cells in the blood. […] In order to detect circulating tumor cells in the mouse circulatory system, DNA was isolated from mouse blood, and human alu fragment concentrations were determined in the blood by qPCR. […]

[7] = system: DU-145 prostate cancer cell line; experiment: Proliferation, detachment and morphology of DU-145 cells treated with OSM; assay type: cell-based, human; conditions: OSM 17.5 ng/ml
Procedure: (§3) Prostate cancer cell lines DU-145 and PC-3 were plated in triplicate in complete RPMI media at a cell density of 1,000 cells/ml and allowed to adhere overnight. Cells were treated the next day with OSM at a concentration of 17.5 ηg/ml (untreated cells were used as a control). Both detached cells and total cells were counted on days 1, 3, 5, 7, and 9. Detached cells were collected, stained with trypan blue and viable cells were counted using a hemocytometer. Adherent cells were trypsinized, stained with trypan blue and viable cells were counted on a hemocytometer. To look at the effects of OSM on prostate cancer cell proliferation, the number of viable detached cells and adherent cells were added together to determine the total number of cells.
The Epithelial-Mesenchymal Transition (EMT) was also measured. During the proliferation and detachment assays detailed above, micrographs of the DU-145 cells were taken at day 5 before cells were collected and counted.

[8] = system: PC-3 prostate cancer cell line; experiment: Proliferation and detachment of PC-3 cells treated with OSM; assay type: cell-based, human; conditions: OSM 17.5 ng/ml
Procedure: as §3

[9] = system: DU-145 prostate cancer cell line; experiment: Matrigel invasion assay, DU-145; assay type: cell-based, human
Procedure: (§4) FIG. 14. Invasive Potential for the DU-145 and PC-3 Prostate Cancer Cell Lines.
(§5) Invasion potential was also measured. OSM increased the invasion potential of both DU-145 and PC-3 cell lines (FIG. 14).

[10] = system: PC-3 prostate cancer cell line; experiment: Matrigel invasion assay, PC-3; assay type: cell-based, human
Procedure: as §4, §5

## O=[N+]([O-])c1c(/C=N/Nc2ccccc2)oc(-c2ccc3c(c2)OCO3)c1-c1ccc2c(c1)OCO2 [OSM-SMI-10]
[1]
  inhibition of OSM downstream signaling: inhibited signaling to various extents
[2]
  OSM-induced detachment: decrease OSM-induced detachment

## Cc1nc(C(N)=S)sc1C(=O)CC(=O)C(=O)Nc1nc2ccccc2[nH]1 [OSM-SMI-11]
[1]
  inhibition of OSM downstream signaling: inhibited signaling to various extents
[2]
  OSM-induced detachment: decrease OSM-induced detachment

B1: OSM: Oncostatin M, IL-6 family cytokine; recombinant human OSM used as stimulus on cells and by peri-tumoral injection (protein, listed as Homo sapiens)
chain: MGVLLTQRTLLSLVLALLFPSMASMAAIGSCSKEYRVLLGQLQKQTDLMQDTSRLLDPYIRIQGLDVPKLREHCRERPGAFPSEETLRGLGRRGFLQTLNATLGCVLHRLADLEQRLPKAQDLERSGLNIEDLEKLQMARPNILGLRNNIYCMAQLLDNSDTAEPTKAGRGASQPPTPTPASDAFQRKLEGCRFLHGYHRFMHSVGRVFSKWGESPNRSRRHSPHQALRKGVRRTRPSRKGKRLMTRGQLPR
[3]
  induction of pSTAT3 by OSM: induced pSTAT3; also recorded: induce pSTAT3 expression
IL-6 [4]; MCF7 cells (ER+)
  IL-6 induction by OSM: did not change
IL-6 [4]; MCF7 cells (ER+), listed as rhOSM
  IL-6 induction by OSM: did not induce IL-6
IL-6 [4]; MDA-MB-231 cells
  IL-6 induction by OSM: 4-5 fold
IL-6 [4]; MDA-MB-231 cells, listed as rhOSM
  IL-6 induction by OSM: approximately 4 fold
IL-6 [4]; MDA-MB-468 cells
  IL-6 induction by OSM: 4-5 fold
IL-6 [4]; MDA-MB-468 cells, listed as rhOSM
  IL-6 induction by OSM: approximately 5 fold
IL-6 [4]; T47D cells (ER+)
  IL-6 induction by OSM: did not change
IL-6 [4]; T47D cells (ER+), listed as rhOSM
  IL-6 induction by OSM: did not induce IL-6
IL-6 [5]
  IL-6 induction by OSM: 4-5 fold
[6]; ex vivo analysis, peri-tumoral OSM versus PBS
  metastatic volume within the lungs: larger metastatic volume
[6]; ex vivo lungs, orders of magnitude
  BLI intensities of the lungs, OSM injected group higher than PBS injected group: 10^2
[6]; female nude mice, OSM 1 μg peri-tumorally 3 times per week
  tumor volume versus PBS group: did not differ
[6]; female nude mice, peri-tumoral OSM
  ex vivo lung BLI intensity versus PBS injections: 200 fold
[6]; human Alu qPCR, versus animals without OSM injections
  increase in number of circulating tumor cells per 100 μl of mouse blood: 3.5 fold
[7]; 5 days, versus untreated cells
  detachment: significantly increased; also recorded: increased detachment
  proliferation: significantly increased; also recorded: increased proliferation
[7]; day 5
  morphology (EMT): more mesenchymal morphology; also recorded: mesenchymal orphology characteristic of having undergone EMT
[8]
  detachment: not and did not show increased detachment
  proliferation: not and did not show increased proliferation
[9]; OSM 17.5 ng/ml, 24 hours
  invasion potential: increased invasion potential
[9]; OSM treated DU-145 cells
  treated cells showing an invasive potential: Twenty three
[10]; OSM 17.5 ng/ml, 24 hours
  invasion potential: increased invasion potential
[10]; OSM treated PC-3 cells
  treated cells showing an invasive potential: 21%
[10]; PC-3 cells pretreated with OSM for 72 hours
  increase in invasive potential versus untreated: 4 fold

B2: rmOSM: recombinant mouse OSM used for the 4T1.2 cells (protein, UniProt P53347 25-206, looked up)
Oncostatin-M: NRGCSNSSSQLLSQLQNQANLTGNTESLLEPYIRLQNLNTPDLRAACTQHSVAFPSEDTLRQLSKPHFLSTVYTTLDRVLYQLDALRQKFLKTPAFPKLDSARHNILGIRNNVFCMARLLNHSLEIPEPTQTDSGASRSTTTPDVFNTKIGSCGFLWGYHRFMGSVGRVFREWDDGSTRSRR
IL-6 [5]
  IL-6 induction by OSM: approximately 4 fold
